From US20090130105A1 (Biogen, published 2009)

What was measured:
[1] = target: T1, sIGF-1R(1-903) (human, UniProt P08069 31-933); assay: SEC with static light scattering
T1 construct: also called soluble IGF-1R ectodomain
Procedure: Analytical size exclusion chromatography (SEC) with in-line static light scattering. […] All samples contained 25 μg of each protein diluted to a final volume of 50 μL in PBS, pH 7.2, before injection onto the SEC column onto a TSKgel G3000SW XL, 5 mm, 250 Å Analytical SEC column (Tosoh Biosciences) equilibrated in 10 mM phosphate, 150 mM NaCl, 0.02% sodium Azide at pH 6.8 using an Agilent 1100 HPLC system. Light scattering data for material eluting from the SEC column were collected using a miniDAWN static light scattering detector coupled to an in-line refractive index meter (Wyatt Technologies). Light scattering data were analyzed using the ASTRA V software provided by the manufacturer.
All samples were diluted to a final volume of 50 μL in PBS, pH 7.2 before SEC/static light scattering analysis.

[2] = target: T1, sIGF-1R(1-903); assay: ITC series titration, C06 MAb first
Procedure: (§1) The protein solutions were prepared as described above for the MAb binding experiments. All ITC experiments were performed on an ITC₂₀₀ microcalorimeter (MicroCal, LLC) at 25° C. […] IGF-1R bispecific antibodies. A four minute equilibration period was used between all injections with an initial delay of 60 seconds. Numerical integration of the data was performed using the ITC data analysis software supplied by MicroCal (Origin). ΔHA° (T) values were calculated based on the difference between the average heat liberated/absorbed during the binding phase of the injections and the average heat of dilution found once the receptor, IGF-1R, was saturated with MAb or BsAb.
Both the dimeric receptor and the bivalent MAbs contain two potential binding sites.

[3] = target: T1, sIGF-1R(1-903); assay: ITC, 25 °C, antibody into sIGF-1R(1-903)
Procedure: as §1, with “Isothermal Titration Calorimetry (ITC). […] The reagents were co-dialyzed against PBS, pH 7.2. The protein solutions were adjusted to the concentrations listed above by dilution using PBS dialysate. […] The” for “The”

[4] = target: T2, human IGF-1R(1-903)-Fc (human, UniProt P08069 31-933); assay: ELISA, blocking of 320 nM IGF-1 His on biotinylated hIGF-1R-Fc
T2 construct: also called hIGF-1R-Fc; SDWT; not shown: human IgG1 Fc, C-terminal tag
Procedure: hIGF-1R-Fc was biotinylated using EZ-Link Sulfo-NHS-LC-Biotin according to the protocol provided by the manufacturer (Pierce Cat. No. 21335). Biotinylated human IGF-1R Fc (NB12453-9) at 5 μg/ml was added to the wells of SigmaScreen streptavidin-coated 96-well plates (Sigma, Cat. No. M5432-5EA) at 100 μL/well and incubated overnight at 2-8° C. The plates were then washed four times with 200 μL/well PBST. […] The dilutions were added to the plates in duplicate at 100 μL/well and the plates were incubated at RT for 1 hour. The plates were then washed four times with 200 μL/well PBST. An HRP-conjugated anti-Histag antibody (Penta-His HRP Conjugate, QIAGEN, Cat. No. 1014992) was diluted 1:1000 in PBST and added to plates at 100 μL/well, and the plates were incubated at RT for one hour. The plates were then washed four times with 200 μL/well PBST. SureBlue Reserve TMB Microwell Peroxidase Substrate (KPL, Cat. No. 53-00-01) was added to plates at 100 μL/well followed by 1% phosphoric acid at 100 μL/well once the desired reaction was observed. The absorbance of each well was determined at 450 nm, and the results were normalized and plotted against the log of antibody concentration.

[5] = target: T3, human IGF-1R(1-902)-His10 (human, UniProt P08069 31-932); assay: SPR competition (Biacore 3000): soluble antibody titrated into 40 nM hIGF-1R-His, mixture injected over immobilized M13-C06
T3 construct: Bought from R&D Systems (305-GR-050); also called hIGF-1R-His10; hIGF-1R-His
Procedure: Regeneration was achieved by three 10 μL injections of 0.1 M glycine, pH 2.0. 100% hIGF-1R-His binding to each antibody was determined by the signal above the baseline under mass transport-limiting conditions 60 seconds into the injection.

T1 sequence (P08069 31-933): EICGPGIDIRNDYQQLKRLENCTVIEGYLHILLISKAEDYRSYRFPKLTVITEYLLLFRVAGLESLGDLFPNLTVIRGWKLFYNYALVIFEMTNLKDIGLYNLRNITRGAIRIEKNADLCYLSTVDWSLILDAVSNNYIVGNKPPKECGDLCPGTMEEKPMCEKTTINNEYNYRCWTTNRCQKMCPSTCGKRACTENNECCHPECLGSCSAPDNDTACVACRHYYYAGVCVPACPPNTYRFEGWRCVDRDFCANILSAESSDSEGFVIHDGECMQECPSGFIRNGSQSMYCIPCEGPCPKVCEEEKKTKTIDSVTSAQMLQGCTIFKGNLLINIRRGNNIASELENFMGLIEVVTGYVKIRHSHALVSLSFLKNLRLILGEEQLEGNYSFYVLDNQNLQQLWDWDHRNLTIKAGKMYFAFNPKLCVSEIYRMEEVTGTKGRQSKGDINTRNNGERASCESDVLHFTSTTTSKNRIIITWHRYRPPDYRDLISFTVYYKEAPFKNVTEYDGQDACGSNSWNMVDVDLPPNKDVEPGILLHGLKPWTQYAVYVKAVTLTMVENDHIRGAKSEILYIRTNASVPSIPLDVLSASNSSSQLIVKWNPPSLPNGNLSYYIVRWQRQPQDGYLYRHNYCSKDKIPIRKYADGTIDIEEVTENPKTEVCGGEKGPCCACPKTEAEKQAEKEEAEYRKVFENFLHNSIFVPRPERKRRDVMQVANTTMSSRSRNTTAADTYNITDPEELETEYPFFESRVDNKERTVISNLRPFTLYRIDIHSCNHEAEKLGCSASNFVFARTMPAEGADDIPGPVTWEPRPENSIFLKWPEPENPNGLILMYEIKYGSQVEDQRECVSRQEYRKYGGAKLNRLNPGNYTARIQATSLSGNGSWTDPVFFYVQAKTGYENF
T3 sequence (P08069 other isoform, or with tags, fused parts or gaps): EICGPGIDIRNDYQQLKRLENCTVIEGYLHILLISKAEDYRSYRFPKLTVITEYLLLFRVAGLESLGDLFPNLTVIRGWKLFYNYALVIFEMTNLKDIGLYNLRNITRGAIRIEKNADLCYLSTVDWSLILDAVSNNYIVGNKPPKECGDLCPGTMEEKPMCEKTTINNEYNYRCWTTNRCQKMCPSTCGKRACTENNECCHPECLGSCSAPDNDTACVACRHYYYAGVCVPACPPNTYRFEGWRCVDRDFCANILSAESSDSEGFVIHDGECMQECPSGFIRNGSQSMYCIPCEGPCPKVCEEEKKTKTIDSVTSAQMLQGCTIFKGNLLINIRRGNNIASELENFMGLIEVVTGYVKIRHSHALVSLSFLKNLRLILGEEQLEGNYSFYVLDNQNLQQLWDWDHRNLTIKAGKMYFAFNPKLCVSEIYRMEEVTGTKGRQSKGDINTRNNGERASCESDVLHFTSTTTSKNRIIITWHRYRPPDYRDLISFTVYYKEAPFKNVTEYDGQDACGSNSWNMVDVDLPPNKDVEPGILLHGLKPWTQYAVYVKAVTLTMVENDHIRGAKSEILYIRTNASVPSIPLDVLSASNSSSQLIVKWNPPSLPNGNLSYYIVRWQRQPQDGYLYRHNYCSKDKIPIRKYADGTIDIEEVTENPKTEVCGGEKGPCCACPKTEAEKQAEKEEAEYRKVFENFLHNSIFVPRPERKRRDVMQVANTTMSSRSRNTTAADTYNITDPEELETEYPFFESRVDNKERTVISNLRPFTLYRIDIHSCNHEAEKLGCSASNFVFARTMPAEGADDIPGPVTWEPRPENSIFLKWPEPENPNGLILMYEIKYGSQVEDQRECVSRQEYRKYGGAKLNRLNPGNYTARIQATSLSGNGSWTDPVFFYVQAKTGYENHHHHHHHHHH
T2 sequence (P08069 31-933): as the sequence (P08069 31-933) above

B1: M13-C06 antibody (antibody, V domains shown)
VH: EVQLLESGGGLVQPGGSLRLSCAASGFTFSIYRMQWVRQAPGKGLEWVSGISPSGGTTWYADSVKGRFTISRDNSKNTLYLQMNSLRAEDTAVYYCARWSGGSGYAFDIWGQGTMVTVSS
VL: DIQMTQSPLSLSASVGDRVTITCQASRDIRNYLNWYQQKPGKAPKLLIYDASSLQTGVPSRFGGSGSGTDFSFTIGSLQPEDIATYYCQQFDSLPHTFGQGTKLEIK
notes: Fully human full-length antibody (ATCC PTA-7444); also called M13.C06.G4.P.agly; M13-C06.G4P.agly
- molecular weight of the complex [1]: 2 MDa
- ΔH° [2]: -21.9 kcal/mol
- ΔH° [3]: -21.9 kcal/mol
- IC50 [4]: 1.3 nM
- IC50 (read off the curve) [5]: ~30 nM
